In series [1] the target is ASK2(1216–1288), C-terminal SAM domain of ASK2 (human) (UniProt O95382). The experiment in a line: AUC.
For series [2], the target named is ASK1(1290–1374), C-terminal SAM domain of ASK1 (human) (UniProt Q99683). The series can be described thus: SAXS.
Series [3] addresses T1, GST-ASK2 SAM domain (human, UniProt O95382 1216-1288).
T1 sequence (looked up): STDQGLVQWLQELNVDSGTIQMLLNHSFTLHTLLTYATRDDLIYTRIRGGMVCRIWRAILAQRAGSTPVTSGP
The series can be described thus: pull-down.

Series [4] concerns the molecule itself. The experiment in a line: SAXS.
Series [5] concerns the molecule itself. The series can be described thus: SEC. (In general: Size exclusion chromatography separates by hydrodynamic size, large species first.)

We go through six molecules from article doi:10.1101/693663 (bioRxiv, 2019).

The term stoichiometry N denotes a count of units in the complex or per binding partner. In turn, “ASK2(1216–1288), C-terminal SAM domain of ASK2 (from UniProt O95382 1216-1288) (domain or fragment)” showed a stoichiometry N in series [1] of 2.

Molecule “ASK1(1290–1374), C-terminal SAM domain of ASK1 (from UniProt Q99683 1290-1374) (domain or fragment)” showed a stoichiometry N in series [2] of 2.

B1: ASK3(1241–1313), C-terminal SAM domain of ASK3 (domain or fragment, human, UniProt Q6ZN16 1241-1313, looked up)
chain: DKELIDWLRLQGADAKTIEKIVEEGYTLSDILNEITKEDLRYLRLRGGLLCRLWSAVSQYRRAQEASETKDKA
For the molecule B1, the binding result in series [3] is listed as “binds”. For the same molecule, the “stoichiometry N” value in series [4] stood at 6.

B2: ASK3 SAM domain Q1304A (domain or fragment, human, UniProt Q6ZN16 1241-1313, looked up)
chain: DKELIDWLRLQGADAKTIEKIVEEGYTLSDILNEITKEDLRYLRLRGGLLCRLWSAVSQYRRAAEASETKDKA
In the case of B2, the binding result in series [5] is reported as “binds”.

B3: ASK3 SAM domain V1262N (domain or fragment, human, UniProt Q6ZN16 1241-1313, looked up)
chain: DKELIDWLRLQGADAKTIEKINEEGYTLSDILNEITKEDLRYLRLRGGLLCRLWSAVSQYRRAQEASETKDKA
For the molecule B3, in series [5], the binding result is recorded as “binds”.

B4: ASK3 SAM domain K1242E (domain or fragment, human, UniProt Q6ZN16 1241-1313, looked up)
chain: DEELIDWLRLQGADAKTIEKIVEEGYTLSDILNEITKEDLRYLRLRGGLLCRLWSAVSQYRRAQEASETKDKA
Regarding B4, the binding result in series [5] is “binds”.
